# Experimental data published in US20120045393A1 (priority 2009, published 2012).
# Non-standard residues stand in square brackets, D forms with d. Primed or numbered codes have the meaning given here. DO3A10CM″ = chelating group at the N-terminus (X in the sequence tables); azaGly′ = aza-glycine residue at the C-terminus, with NH2; Bpa = N[C@@H](Cc1ccc(C(=O)c2ccccc2)cc1)C(=O)O; d2Nal = N[C@H](Cc1ccc2ccccc2c1)C(=O)O; 3Pal = N[C@@H](Cc1cccnc1)C(=O)O; DO3A10CM = not defined here; Bpa4 = non-natural residue; Dnalg1 = not defined here; Ampa4 = not defined here; Ampg4 = not defined here; Gufe4 = not defined here; dAfe4 = not defined here; Thz′ = not defined here; Tha = not defined here; azaGly = NNC(=O)O; Sar = CNCC(=O)O
# B1: BRU-3060 (peptide)
# peptide: DO3A10CM-[d2Nal][Ampg4]WSH[dR]W[Bpa]P[azaGly′]-NH2
# modifications: reading uncertain; also: printed as DO3A10CM-Dnal2-Ampg4-Trp-Ser-His-Darg-Trp-Bpa4-Pro-azaGly-NH2
# B2: BRU-3098 (peptide)
# peptide: KXRWSHXWXPX
# modifications: Lys(DO3A10CM) before 1 (chelator on the Lys side chain); Dnal2 at 1; Darg at 6; Bpa4 at 8; azaGly-NH2 at 10
# B3: BRU-2984 (peptide)
# peptide: XRWSHXWXP
# modifications: N-terminal DO3A10CM; Dnal2 at 1; Darg at 6; Bpa4 at 8; C-terminal Gua (guanidine) at 10
# B4: BRU-2963 (peptide)
# peptide: XXRWSHXWXPX
# modifications: N-terminal DO3A10CM; Ambz4 linker before 1; Dnal2 at 1; Darg at 6; Bpa4 at 8; azaGly-NH2 at 10
# B5: BRU-2964 (peptide)
# peptide: DO3A10CM-[d2Nal]RWMH[dR]W[Bpa]P[azaGly]-NH2
# modifications: reading uncertain; also: printed as DO3A10CM-Dnal2-Arg-Trp-Met-His-Darg-Trp-Bpa4-Pro-azaGly-NH2
# B6: BRU-3006 (peptide)
# peptide: XRWSHXWXP
# modifications: N-terminal DO3A10CM; Dnal2 at 1; Darg at 6; Bpa4 at 8; C-terminal Ap (aminophenyl) at 10
# B7: BRU-2962 (peptide)
# peptide: GXRWSHXWXPX
# modifications: N-terminal DO3A10CM; Gly linker before 1; Dnal2 at 1; Darg at 6; Bpa4 at 8; azaGly-NH2 at 10
# B8: BRU-3058 (peptide)
# peptide: DO3A10CM-[d2Nal][Gufe4]WSH[dR]W[Bpa]P[azaGly′]-NH2
# modifications: reading uncertain; also: printed as DO3A10CM-Dnal2-Gufe4-Trp-Ser-His-Darg-Trp-Bpa4-Pro-azaGly-NH2
# B9: BRU-2971 (peptide)
# peptide: DO3A10CM-[d2Nal]RWSH[dR]W[Bpa]PGQ-NH2
# modifications: reading uncertain; also: printed as DO3A10CM-Dnal2-Arg-Trp-Ser-His-Darg-Trp-Bpa4-Pro-Gly-Gln-NH2
# B10: BRU-3059 (peptide)
# peptide: DO3A10CM-[d2Nal][Ampa4]WSH[dR]W[Bpa]P[azaGly′]-NH2
# modifications: reading uncertain; also: printed as DO3A10CM-Dnal2-Ampa4-Trp-Ser-His-Darg-Trp-Bpa4-Pro-azaGly-NH2
# B11: BRU-2985 (peptide)
# peptide: XRWSHXWXP
# modifications: N-terminal DO3A10CM; Dnal2 at 1; Darg at 6; Bpa4 at 8; C-terminal A1gua5o3pt at 10
# B12: BRU-2811 (peptide)
# peptide: HWSHXWXPX
# modifications: N-terminal DO3A10CM on His (AA1 absent); Darg at AA6; Bpa4 at AA8; azaGly-NH2 at AA10
# B13: BRU-2719 (peptide)
# peptide: XXWSHXWXPX
# modifications: DO3A10CM on N-terminus; AA1 Sar; AA2 4ClPhe; AA6 Darg; AA8 Bpa4; AA10 azaGly-NH2
# B14: BRU-3052 (peptide)
# peptide: GXRWSHXWXPX
# modifications: DO3A10CM-Gly (linker) on N-terminus; AA1 Tic; AA6 Darg; AA8 Bpa4; AA10 azaGly-NH2
# B15: BRU-3067 (peptide)
# peptide: GXRWSHXWXPX
# modifications: DO3A10CM-Gly (linker) on N-terminus; AA1 Dtic; AA6 Darg; AA8 Bpa4; AA10 azaGly-NH2
# Target: LHRH receptor (LHRH binding sites) on EFO-27 human ovarian cancer cells (human)
# Test: competition with [125I-Tyr8]BRU-2477, EFO-27 cells
row,Binder,EC50
1,XRWSHXWXPX (N-terminal DO3A10CM; Dnal2 at 1; Darg at 6; Nal2 at 8; azaGly-NH2 at 10) [BRU-3027],370 nM
2,B1,340 nM
3,B2,410 nM
4,B3,400 nM
5,XHWSHXWXPX (Ac-Amfe4 at 1; Darg at 6; Bpa4 at 8; azaGly-NH2 at 10) [BRU-2839],250 nM
6,B4,280 nM
7,XRRSHXWXPX (N-terminal DO3A10CM; Dnal2 at 1; Darg at 6; Bpa4 at 8; azaGly-NH2 at 10) [BRU-3111],250 nM
8,XRWSHXWXP (DO3A10CM on N-terminus; AA1 Dnal2; AA6 Darg; AA8 Bpa4; AA10 Pheol) [BRU-2983],450 nM
9,B5,220 nM
10,XRWSHXWXPX (N-terminal DO3A10CM; Damfe4 at 1; Darg at 6; Bpa4 at 8; azaGly-NH2 at 10) [BRU-2997],330 nM
11,XHWSHXWXPX (pGlu at 1; Darg at 6; Bpa4 at 8; azaGly-NH2 at 10) [BRU-2822],420 nM
12,B6,420 nM
13,B7,470 nM
14,B8,260 nM
15,XHWSHXWXPX (AA1 Sar; AA6 Darg; AA8 Bpa4; AA10 azaGly-NH2) [BRU-2441],140 nM
16,XRWSHRWXPX (N-terminal DO3A10CM; Dnal2 at 1; Bpa4 at 8; azaGly-NH2 at 10 (L-Arg at 6)) [BRU-3031],310 nM
17,B9,490 nM
18,HRWSHXWXPX (N-terminal DO3A10CM; Darg at 6; Bpa4 at 8; azaGly-NH2 at 10) [BRU-3025],470 nM
19,B10,410 nM
20,B11,460 nM
21,XRFSHXWXPX (N-terminal DO3A10CM; Dnal2 at 1; Darg at 6; Bpa4 at 8; azaGly-NH2 at 10) [BRU-3106],430 nM
22,XHWSHXWXPX (Ac-Dnal2 at 1; Darg at 6; Bpa4 at 8; azaGly-NH2 at 10) [BRU-2803],260 nM
23,XRWNHXWXPX (N-terminal DO3A10CM; Dnal2 at 1; Darg at 6; Bpa4 at 8; azaGly-NH2 at 10) [BRU-2956],270 nM
24,RRWSHXWXPX (N-terminal DO3A10CM; Darg at 6; Bpa4 at 8; azaGly-NH2 at 10) [BRU-3050],310 nM
25,B12,360 nM
26,DO3A10CM-[d2Nal]RWSH[dR]W[Bpa4]PGR-NH2 (reading uncertain) [BRU-2969],240 nM

# Target: LHRH binding sites on EFO-27 human ovarian cancer cells (human)
# Test: competition with [125I-Tyr8]BRU-2477 on EFO-27 cells
Binder,EC50,times more potent than BRU-2439
DO3A10CM-[Sar][dAfe4]WSH[dR]W[Bpa]P[azaGly]-NH2 (reading uncertain) [BRU-2815],7250 nM,
B1,340 nM,
B13,630 nM,
B3,400 nM,
XRWSHXWXP (DO3A10CM on N-terminus; AA1 Dnal2; AA6 Darg; AA8 Bpa4; AA10 Pheol) [BRU-2983],450 nM,
B14,550 nM,
XRWSHXWXPX (DO3A10CM on N-terminus; AA1 Sar; AA6 Darg; AA8 Bpa4; AA10 azaGly-NH2) [BRU-2817],1700 nM,
XRWSHXWXPX (DO3A10CM on N-terminus; AA1 Cafe4; AA6 Darg; AA8 Bpa4; AA10 azaGly-NH2) [BRU-3092],2000 nM,
DO3A10CM-[Sar][Tha]WSH[dR]W[Bpa]P[azaGly]-NH2 (reading uncertain) [BRU-2768],12800 nM,
{DO3A10CM″}-[Sar][His(pime)]WSH[dR]W[Bpa]P[azaGly]-NH2 [BRU-2759],10000 nM,
XHWSHXWXPX (DO3A10CM on N-terminus; AA1 Dtyr; AA6 Darg; AA8 Bpa4; AA10 azaGly-NH2) [BRU-2870],10000 nM,
B6,420 nM,
XRWSHXWXPX (DO3A10CM on N-terminus; AA1 Nal2; AA6 Darg; AA8 Bpa4; AA10 azaGly-NH2) [BRU-3051],620 nM,
DO3A10CM-G[Thz′]HWSH[dR]W[Bpa]P[azaGly]-NH2 (reading uncertain) [BRU-2728],3150 nM,
B8,260 nM,
DO3A10CM-G[Dnalg1]HWSH[dR]W[Bpa]P[azaGly]-NH2 (reading uncertain) [BRU-2770],2700 nM,
XHWSHXWXPX (AA1 Sar; AA6 Darg; AA8 Bpa4; AA10 azaGly-NH2) [BRU-2441],140 nM,2 times
XHWSHXWXPX (DO3A10CM on N-terminus; AA1 Ambz4; AA6 Darg; AA8 Bpa4; AA10 azaGly-NH2) [BRU-2737],1400 nM,
B9,490 nM,
XHWSHXWXPX (DO3A10CM on N-terminus; AA1 EtGly; AA6 Darg; AA8 Bpa4; AA10 azaGly-NH2) [BRU-2788],210 nM,
B10,410 nM,
B11,460 nM,
B15,510 nM,
DO3A10CM-[Sar][3Pal]WSH[dR]W[Bpa]P[azaGly]-NH2 (reading uncertain) [BRU-2818],1620 nM,
XHWSHXWXPX (AA1 Ac-Amfe4 with (DO3A10CM) as printed; AA6 Darg; AA8 Bpa4; AA10 azaGly-NH2) [BRU-2881],1380 nM,
DO3A10CM-[d2Nal]RWSH[dR]W[Bpa4]PGR-NH2 (reading uncertain) [BRU-2969],240 nM,
XHWSHXWXPX (DO3A10CM on N-terminus; AA1 Nal2; AA6 Darg; AA8 Bpa4; AA10 azaGly-NH2) [BRU-2809],3540 nM,
